Data taken from patent US20220144916A1 (University of Texas, published 2022).

Biological target: human IgG1 coated on ELISA plates (human, UniProt P01857-1 1-330 = IgG part)
Experiment: competition ELISA, human IgG1 coat; blocked ligand FLAG-tagged FcγRIIIA, anti-FLAG-HRP [panel B]

B1: HCMV viral Fcγ receptor gp34 (residues 24-182), soluble, strep and FLAG tags (receptor)
chain: SSSNAVEPTKKPLKLANYRATCEDRTRTLVTRLNTSHHSVVWQRYDIYSRYMRRMPPLCIITDAYKETTRQGGAAFACTRQNLTLYNLTVKDTGVYLLQDQYTGDVEAFYLIIHPRSFCRALETRRCFYPGPGRVVVTDSQEADRAIISDLKRQWSGLS
notes: range 24-182
- IC50 (read off the curve): ~30 nM
